What is called Kd is the constant that tells how readily two partners part at equilibrium. A high value points to lower affinity. By koff is commonly meant a measure of how fast the partners let go of each other. The low end stands for slow dissociation, the high end for fast dissociation. In general, kon refers to the rate constant with which the complex forms. A higher kon goes with faster complex formation.

From patent US20250002564A1 (HOSPITAL FOR SICK CHILDREN, published 2025) come the findings set out here.

Several values for one entry are separate records, joined by “and”; a condition that tells them apart may be missing. Equal values may be shown once.

In assay [1] the target is T1, mouse FcγRI (mouse, UniProt P26151 25-297).
T1 sequence (looked up): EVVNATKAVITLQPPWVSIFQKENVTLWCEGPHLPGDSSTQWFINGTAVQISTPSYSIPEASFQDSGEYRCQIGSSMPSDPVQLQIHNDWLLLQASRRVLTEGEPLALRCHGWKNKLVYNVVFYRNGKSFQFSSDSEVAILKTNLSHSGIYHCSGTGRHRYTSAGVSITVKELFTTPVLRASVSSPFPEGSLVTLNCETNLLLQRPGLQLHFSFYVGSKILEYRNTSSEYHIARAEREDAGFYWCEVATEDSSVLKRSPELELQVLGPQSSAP

Assay [2] has as its target T2, mouse FcRn (mouse, UniProt Q61559 22-297; P01887 21-119).
T2 construct: also called mFcRn
T2 sequence (looked up) 1: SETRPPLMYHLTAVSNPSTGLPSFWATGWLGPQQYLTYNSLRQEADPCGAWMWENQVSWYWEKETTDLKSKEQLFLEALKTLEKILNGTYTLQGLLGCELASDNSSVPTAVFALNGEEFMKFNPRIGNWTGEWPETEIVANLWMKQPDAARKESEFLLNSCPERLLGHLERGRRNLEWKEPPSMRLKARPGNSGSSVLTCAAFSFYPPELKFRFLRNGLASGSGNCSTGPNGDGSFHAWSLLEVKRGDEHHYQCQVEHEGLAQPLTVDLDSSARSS
T2 sequence (looked up) 2: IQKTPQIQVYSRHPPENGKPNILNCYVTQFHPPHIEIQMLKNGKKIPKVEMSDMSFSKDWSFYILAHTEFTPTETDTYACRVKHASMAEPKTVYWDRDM
The assay can be described thus: pH 5.6.

Assay [3] has as its target T2, mouse FcRn.
For assay [4], the target named is SARS-CoV-2 Spike on wild-type pseudotyped virus (PsV) (SARS-CoV-2, UniProt P0DTC2 14-1273). The assay can be described thus: cell-based or functional assay.

B1: HD37 single chain IgG2a (mouse, anti-hCD19) (antibody)
chain: DILLTQTPASLAVSLGQRATISCKASQSVDYDGDSYLNWYQQIPGQPPKLLIYDASNLVSGIPPRFSGSGSGTDFTLNIHPVEKVDAATYHCQQSTEDPWTFGGGTKLEIKRADAAPTVSIFPPSSEQLTSGGASVVCFLNNFYPKDINVKWKIDGSERQNGVLNSWTDQDSKDSTYSMSSTLTLTKDEYERHNSYTCEATHKTSTSPIVKSFNRNECGGSSGSGSGSTGTSSSGTGTSAGTTGTSASTSGSGSGGGGGSGGGGSAGGTATAGASSGSGSSGSSSSGGTGTGQVQLQQSGAELVRPGSSVKISCKASGYAFSSYWMNWVKQRPGQGLEWIGQIWPGDGDTNYNGKFKGKATLTADESSSTAYMQLSSLASEDSAVYFCARRETTTVGRYYYAMDYWGQGTSVTVSSSQSFPNVFPLVSCESPLSDKNLVAMGCLARDFLPSTISFTWNYQNNTEVIQGIRTFPTLRTGGKYLATSQVLLSPKSILEGSDEYLVCKIHYGGKNRDLHVPIPSKPCPPCKCPAPNLLGGPSVFIFPPKIKDVLMISLSPIVTCVVVDVSEDDPDVQISWFVNNVEVHTAQTQTHREDYNSTLRVVSALPIQHQDWMSGKEFKCKVNNKDLPAPIERTISKPKGSVRAPQVYVLPPPEEEMTKKQVTLTCMVTDFMPEDIYVEWTNNGKTELNYKNTEPVLDSDGSYFMYSKLRVEKKNWVERNSYSCSVVHEGLHNHHTTKSFSRTPGK
notes: also called mIgG2a control; parental IgG
With B1, in assay [1], the affinity, expressed as Kd, was 8.63 nM; the dissociation rate constant (koff) came out at 0.000451 s⁻¹; the association rate constant (kon) worked out at 52200 M⁻¹ s⁻¹. In addition, in assay [2], the affinity, expressed as Kd, was 1.06 nM and the koff came to 0.000123 s⁻¹. The molecule also returned a kon in assay [3] of 116000 M⁻¹ s⁻¹.

B2: 4A8 IgG (antibody, V domains shown)
VH: EVQLVESGAEVKKPGASVKVSCKVSGYTLTELSMHWVRQAPGKGLEWMGGFDPEDGETMYAQKFQGRVTMTEDTSTDTAYMELSSLRSEDTAVYYCATSTAVAGTPDLFDYYYGMDVWGQGTTVTVSS
VL: EIVMTQSPLSSPVTLGQPASISCRSSQSLVHSDGNTYLSWLQQRPGQPPRLLIYKISNRFSGVPDRFSGSGAGTDFTLKISRVEAEDVGVYYCTQATQFPYTFGQGTKVDIK
notes: also called IgG 4A8
For B2, in assay [4], the “Median IC50” value is > 100 µg/mL and > 0.66 µM.
